Measurements reported in PMC6108936 (Cell, 2018).

Target: the molecule itself
Assay: cryo-EM structure

B1: Cps25 (natural protein, Saccharomyces cerevisiae, UniProt Q03323 1-175, looked up)
chain: MNESENSPQHNEVTVPMVEDTSSNADIPMEQIQREDNKNYDKHDNECFDMNGNHNNNSDNLQFDSVPSSATKDLKNIKSVTNQNVKIEESSSTNSVIEESSEPKISKLENVNLAATVGGSQTRKYLNTNVTPHLLAGMRLIAVQQPEDPLRVLGEYLIEQSNILKSGEKESNASK
B1: binds.
